± gives the uncertainty stated by the source.
Test: protein stability index of a GFP-peptide fusion (yeast GPS) (PSI 1-4); higher = more stable; sorted into four equal gates, so the index is relative within each strain
Procedure, shortened: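 Tiled 17-residue peptides from yeast proteins were fused downstream of GFP on a plasmid that also expresses Cherry, and the pooled library was carried in yeast. Mid-log cultures grown in leucine-free medium were sorted into four equal gates by GFP/Cherry fluorescence ratio. Plasmids from each gate were PCR-amplified and Illumina-sequenced, and reads were assigned to strains by barcodes. Each peptide's protein stability index is the sum, over gates, of the gate's read frequency multiplied by its gate number.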

Row | Sequence | protein stability index (doa10∆) | protein stability index (pdr5∆) | protein stability index (san1∆) | protein stability index (ubr1∆)
1 | VNGAKNLVVSGPPQSLY [FAS1] | 2.07 ± 0.1 | 1.78 ± 0.066 | 2.03 ± 0.088 | 2.2 ± 0.052
2 | NVSNTFNKTTNIDINNE [YJL041W/NSP1] | 3.1 ± 0.068 | 3.28 ± 0.065 | 2.68 ± 0.073 | 3.08 ± 0.051
3 | TCAGGRLFNVVVQDSQT [SMC2] | 2.84 ± 0.11 | 3.18 ± 0.11 | 2.39 ± 0.12 | 2.76 ± 0.082
4 | EGLIIDTDKLPIKNRTS [SIN4] | 2.79 ± 0.11 | 2.85 ± 0.086 | 2.76 ± 0.074 | 2.94 ± 0.063
5 | KHEEIDTKNLYVIKALQ [RPS10A] | 1.6 ± 0.085 | 2.02 ± 0.078 | 1.64 ± 0.12 | 1.46 ± 0.077
6 | PITSETAMKKVEDGNIL [RPL25] | 3.05 ± 0.16 | 3.18 ± 0.095 | 3.12 ± 0.22 | 3.24 ± 0.15
7 | STGLKNASDALKGRVVE [RPS1B] | 3.21 ± 0.15 | 3.04 ± 0.099 | 2.91 ± 0.12 | 2.67 ± 0.07
8 | RTKFVRSLVREIAGLSP [RPL36A] | 2.59 ± 0.19 | 2.71 ± 0.19 | 2.85 ± 0.086 | 2.92 ± 0.09
9 | GGIETILEHTLFKGTGF [PRP8] | 3.3 ± 0.22 | 3.28 ± 0.21 | 3.21 ± 0.14 | 3.47 ± 0.13
10 | DKNKLLLLAAQIVSYCS [SSN2] | 1.97 ± 0.039 | 1.66 ± 0.038 | 2.05 ± 0.06 | 1.74 ± 0.037
11 | EAHPTKVKNFGVWVRYD [RPL20A] | 3.02 ± 0.087 | 2.96 ± 0.056 | 3.01 ± 0.044 | 2.9 ± 0.047
12 | QAISYLHKLQRMRLRAL [GRR1] | 1.77 ± 0.057 | 1.74 ± 0.053 | 1.8 ± 0.055 | 1.49 ± 0.028
13 | HKKIKVAQPDSLRETNT [SIR2] | 3.33 ± 0.13 | 3.25 ± 0.11 | 2.6 ± 0.092 | 3.2 ± 0.053
14 | NVMLEKIKDNKEKIKNN [RPT5] | 2.78 ± 0.12 | 2.94 ± 0.087 | 2.55 ± 0.099 | 2.72 ± 0.094
15 | HKQIHTTIFVKSTTPYV [POP7] | 2.15 ± 0.045 | 2.31 ± 0.05 | 2.15 ± 0.062 | 1.82 ± 0.03
16 | PIKNRKNDTHYLLPDDF [BRN1] | 2.98 ± 0.079 | 2.93 ± 0.094 | 2.85 ± 0.061 | 2.95 ± 0.058
17 | GKTYMGWWGHMGGPKQK [QCR8] | 1.88 ± 0.22 | 1.79 ± 0.11 | 1.63 ± 0.19 | 2.4 ± 0.14
18 | ILERAYKKLDIDGKVIQ [SNF2] | 3.16 ± 0.083 | 3.34 ± 0.076 | 3.05 ± 0.042 | 3 ± 0.058
19 | EVDKSKLITTYISLLKL [YDL116W/NUP84] | 2.66 ± 0.08 | 1.45 ± 0.06 | 1.27 ± 0.13 | 1.43 ± 0.046
20 | VVDRESDIPKTTVQVAE [PRE4] | 2.6 ± 0.11 | 2.99 ± 0.1 | 2.8 ± 0.13 | 3.06 ± 0.076
21 | SVSLLNSDIANLRTQVT [SMC1] | 3.04 ± 0.09 | 3.08 ± 0.064 | 3.13 ± 0.096 | 2.56 ± 0.11
22 | PEDAQLLLAANTHLGAR [RPS0A] | 1.63 ± 0.058 | 1.39 ± 0.052 | 1.63 ± 0.12 | 1.9 ± 0.068
23 | NNNNNNNNNNNNDDNGN [MED2] | 3.09 ± 0.038 | 2.94 ± 0.033 | 3.227 ± 0.029 | 3.23 ± 0.034
24 | LSSAGAKSTVETFISSM [RIP1] | 3.08 ± 0.17 | 2.8 ± 0.13 | 2.86 ± 0.072 | 2.69 ± 0.11
25 | KIWSVKDGSNPRTLIGH [RPN14] | 3.12 ± 0.11 | 3.01 ± 0.12 | 2.95 ± 0.14 | 2.96 ± 0.12
26 | SGTFYRYNAKAIGSGSE [PUP2] | 3.15 ± 0.088 | 3.14 ± 0.09 | 3.37 ± 0.06 | 2.98 ± 0.073
27 | TASFIPLDTIETELPTL [SMC1] | 2.58 ± 0.066 | 2.65 ± 0.078 | 2.56 ± 0.066 | 2.53 ± 0.051

Row | Sequence | protein stability index (doa10∆) | protein stability index (pdr5∆) | protein stability index (san1∆) | protein stability index (ubr1∆)
28 | GNIDTKNNILGSNVLKS [RRP43] | 2.86 ± 0.039 | 2.97 ± 0.044 | 2.92 ± 0.032 | 3.041 ± 0.027
29 | NKELPINHTILGKLQDV [RPN8] | 2.62 ± 0.051 | 2.69 ± 0.068 | 2.5 ± 0.064 | 2.67 ± 0.049
30 | MLWGGASMLGLFVFTEG [QCR10] | 1.96 ± 0.14 | 1.82 ± 0.11 | 2.43 ± 0.26 | 3.19 ± 0.2
31 | GFDIQKSCEPVSISTSV [SIR4] | 1.36 ± 0.091 | 1.73 ± 0.13 | 1.51 ± 0.27 | 1.56 ± 0.07
32 | RTLNIQPEVAVKAAINF [YIL149C/MLP2] | 2.19 ± 0.054 | 2.15 ± 0.045 | 1.84 ± 0.071 | 2.21 ± 0.046
33 | VQMDKIRKIVRKDENQF [AAR2] | 3.25 ± 0.17 | 2.81 ± 0.18 |  | 
34 | YQMQSNYESVFTYNKFL [YIL149C/MLP2] | 1.29 ± 0.043 | 1.23 ± 0.028 | 1.55 ± 0.14 | 1.5 ± 0.048
35 | ENQPFHGIKDIPIGHVH [AAR2] | 2.79 ± 0.078 | 2.98 ± 0.086 | 2.89 ± 0.084 | 2.67 ± 0.092
36 | NTHLGARNVQVHQEPYV [RPS0A] | 2.06 ± 0.087 | 2.25 ± 0.053 | 2.59 ± 0.09 | 2.11 ± 0.058
37 | YGEATSPFGAYGEAPTS [RPO21] | 2.48 ± 0.065 | 2.58 ± 0.049 | 2.9 ± 0.064 | 2.79 ± 0.054
38 | SASDALKGRVVEVCLAD [RPS1A] | 2.46 ± 0.06 | 2.82 ± 0.093 | 2.35 ± 0.081 | 2.43 ± 0.055
39 | VYSVDPLEKITDAYLDQ [PRP8] | 3.33 ± 0.17 | 3.11 ± 0.15 | 2.98 ± 0.1 | 3.15 ± 0.15
40 | AEDGSRSTKDMIDAVFE [SNF6] | 3.18 ± 0.06 | 3.38 ± 0.048 | 3.31 ± 0.042 | 3.14 ± 0.046
41 | NSNTNLNSLSPQAILAK [SWI1] | 2.28 ± 0.046 | 1.93 ± 0.033 | 1.92 ± 0.054 | 2.02 ± 0.03
42 | KGLIKVNGSPITLVEPE [RPS16A] | 3.09 ± 0.095 | 3.42 ± 0.13 | 3.06 ± 0.082 | 3.24 ± 0.11
43 | KKAVKELYEVDVLKVNT [RPL25] | 3.01 ± 0.069 | 3.09 ± 0.073 | 3.1 ± 0.037 | 3.13 ± 0.049
44 | PSTTDDENGDKNDNGGK [SWI3] | 3.09 ± 0.089 | 3.3 ± 0.069 | 3.23 ± 0.05 | 3.25 ± 0.079
45 | AARKAANKEKRAIILER [RPL7A] | 1.19 ± 0.051 | 1.37 ± 0.058 | 1.14 ± 0.078 | 1.27 ± 0.14
46 | LDDQIFVCEKSIEFAKR [RPN6] |  |  |  | 1.27 ± 0.16
47 | DSVILASSKAVTRGISV [PRE1] | 2.14 ± 0.045 | 2.42 ± 0.048 | 2.28 ± 0.056 | 2.34 ± 0.041
48 | RSLVREIAGLSPYERRL [RPL36A] | 2.86 ± 0.13 | 3.5 ± 0.2 | 2.78 ± 0.12 | 2.82 ± 0.11
49 | TKIKDAEEDSLLSGEDL [YJL039C/NUP192] | 3.35 ± 0.16 | 3.45 ± 0.086 | 3.14 ± 0.16 | 3.38 ± 0.12
50 | ILEELDFVRNELNDIDT [SMC3] | 3.08 ± 0.2 |  |  | 
51 | IIAELSFLKVDPDLGLD [YJL039C/NUP192] | 3.35 ± 0.091 | 3.26 ± 0.086 | 3.23 ± 0.1 | 3 ± 0.095
52 | YERRFGPYFVGPVVAGI [PUP3] | 3.25 ± 0.22 | 2.81 ± 0.18 |  | 3.11 ± 0.16
53 | VYLSLLDKDSSQSSAAA [RPN6] | 3 ± 0.16 | 3.21 ± 0.069 |  | 3.03 ± 0.071

— the supplement of paper PMC9732359
